Abundance fitness data for 57 substances are collected here from the Human Domainome abundance scans (Beltran et al. 2025).

± gives the uncertainty stated by the source.

A short description of the data set: abundance fitness (aPCA) (normalised: wild type 0, dead -1); higher = more abundant; growth selection in yeast, the domain comes from the species named. The settings on record: Homo sapiens.
With “NEDD4-like E3 ubiquitin-protein ligase WWP2 R468W, O00308”, the abundance fitness is -0.336 ± 0.066.

“NEDD4-like E3 ubiquitin-protein ligase WWP2 R468Y, O00308”: the abundance fitness is -0.251 ± 0.064.

As to “NEDD4-like E3 ubiquitin-protein ligase WWP2 R476A, O00308”, the abundance fitness was -0.291 ± 0.058.

For “NEDD4-like E3 ubiquitin-protein ligase WWP2 R476C, O00308”, the abundance fitness is -0.198 ± 0.061.

As to “NEDD4-like E3 ubiquitin-protein ligase WWP2 R476D, O00308”, the abundance fitness is -0.297 ± 0.047.

Regarding “NEDD4-like E3 ubiquitin-protein ligase WWP2 R476F, O00308”, the abundance fitness is -0.505 ± 0.084.

As to “NEDD4-like E3 ubiquitin-protein ligase WWP2 R476G, O00308”, the abundance fitness is -0.206 ± 0.051.

Turning to “NEDD4-like E3 ubiquitin-protein ligase WWP2 R476H, O00308”, the abundance fitness was -0.4 ± 0.081.

With “NEDD4-like E3 ubiquitin-protein ligase WWP2 R476K, O00308”, the abundance fitness was -0.248 ± 0.069.

As for “NEDD4-like E3 ubiquitin-protein ligase WWP2 R476L, O00308”, the abundance fitness was -0.202 ± 0.037.

“NEDD4-like E3 ubiquitin-protein ligase WWP2 R476M, O00308”: the abundance fitness is -0.324 ± 0.048.

Regarding “NEDD4-like E3 ubiquitin-protein ligase WWP2 R476N, O00308”, the abundance fitness is -0.186 ± 0.049.

Take “NEDD4-like E3 ubiquitin-protein ligase WWP2 R476P, O00308”: the abundance fitness is -0.188 ± 0.07.

Take “NEDD4-like E3 ubiquitin-protein ligase WWP2 R476Q, O00308”: the abundance fitness is -0.406 ± 0.074.

As for “NEDD4-like E3 ubiquitin-protein ligase WWP2 R476S, O00308”, the abundance fitness was -0.271 ± 0.052.

As to “NEDD4-like E3 ubiquitin-protein ligase WWP2 R476T, O00308”, the abundance fitness is -0.075 ± 0.049.

“NEDD4-like E3 ubiquitin-protein ligase WWP2 R476W, O00308”: the abundance fitness is -0.294 ± 0.045.

As to “NEDD4-like E3 ubiquitin-protein ligase WWP2 R476Y, O00308”, the abundance fitness is -0.369 ± 0.05.

On to “NEDD4-like E3 ubiquitin-protein ligase WWP2 R493A, O00308”, for which the abundance fitness is -0.237 ± 0.12.

As for “NEDD4-like E3 ubiquitin-protein ligase WWP2 R493C, O00308”, the abundance fitness is -0.399 ± 0.12.

“NEDD4-like E3 ubiquitin-protein ligase WWP2 R493E, O00308”: the abundance fitness was -0.058 ± 0.063.

Consider “NEDD4-like E3 ubiquitin-protein ligase WWP2 R493F, O00308”, for which the abundance fitness came to 0.299 ± 0.12.

Turning to “NEDD4-like E3 ubiquitin-protein ligase WWP2 R493G, O00308”, the abundance fitness was determined as 0.041 ± 0.064.

The substance “NEDD4-like E3 ubiquitin-protein ligase WWP2 R493H, O00308” gave an abundance fitness of 0.065 ± 0.087.

Turning to “NEDD4-like E3 ubiquitin-protein ligase WWP2 R493I, O00308”, the abundance fitness was -0.502 ± 0.18.

Consider “NEDD4-like E3 ubiquitin-protein ligase WWP2 R493K, O00308”, for which the abundance fitness was -0.022 ± 0.089.

Take “NEDD4-like E3 ubiquitin-protein ligase WWP2 R493L, O00308”: the abundance fitness is -0.088 ± 0.1.

On to “NEDD4-like E3 ubiquitin-protein ligase WWP2 R493M, O00308”, for which the abundance fitness was -0.083 ± 0.082.

For the substance “NEDD4-like E3 ubiquitin-protein ligase WWP2 R493N, O00308”, the abundance fitness is -0.666 ± 0.28.

On to “NEDD4-like E3 ubiquitin-protein ligase WWP2 R493P, O00308”, for which the abundance fitness was -0.006 ± 0.063.

In turn, “NEDD4-like E3 ubiquitin-protein ligase WWP2 R493Q, O00308” had an abundance fitness of 0.132 ± 0.11.

“NEDD4-like E3 ubiquitin-protein ligase WWP2 R493S, O00308”: the abundance fitness is -0.201 ± 0.079.

For “NEDD4-like E3 ubiquitin-protein ligase WWP2 R493T, O00308”, the abundance fitness is 0.002 ± 0.056.

Take “NEDD4-like E3 ubiquitin-protein ligase WWP2 R493V, O00308”: the abundance fitness was -0.069 ± 0.037.

Regarding “NEDD4-like E3 ubiquitin-protein ligase WWP2 R493W, O00308”, the abundance fitness is -0.013 ± 0.071.

In the case of “NEDD4-like E3 ubiquitin-protein ligase WWP2 R493Y, O00308”, the abundance fitness was -0.055 ± 0.055.

With “NEDD4-like E3 ubiquitin-protein ligase WWP2 S456A, O00308”, the abundance fitness was -0.066 ± 0.048.

Consider “NEDD4-like E3 ubiquitin-protein ligase WWP2 S456C, O00308”, for which the abundance fitness is -0.01 ± 0.063.

“NEDD4-like E3 ubiquitin-protein ligase WWP2 S456D, O00308” returned an abundance fitness of 0.085 ± 0.071.

As for “NEDD4-like E3 ubiquitin-protein ligase WWP2 S456E, O00308”, the abundance fitness was 0.017 ± 0.035.

Turning to “NEDD4-like E3 ubiquitin-protein ligase WWP2 S456F, O00308”, the abundance fitness was -0.24 ± 0.063.

For the substance “NEDD4-like E3 ubiquitin-protein ligase WWP2 S456G, O00308”, the abundance fitness was -0.043 ± 0.046.

Consider “NEDD4-like E3 ubiquitin-protein ligase WWP2 S456H, O00308”, for which the abundance fitness stood at 0.346 ± 0.096.

As to “NEDD4-like E3 ubiquitin-protein ligase WWP2 S456K, O00308”, the abundance fitness is -0.039 ± 0.054.

On to “NEDD4-like E3 ubiquitin-protein ligase WWP2 S456L, O00308”, for which the abundance fitness is -0.169 ± 0.05.

For “NEDD4-like E3 ubiquitin-protein ligase WWP2 S456M, O00308”, the abundance fitness is -0.06 ± 0.065.

On to “NEDD4-like E3 ubiquitin-protein ligase WWP2 S456N, O00308”, for which the abundance fitness is 0.04 ± 0.074.

Consider “NEDD4-like E3 ubiquitin-protein ligase WWP2 S456P, O00308”, for which the abundance fitness is -0.062 ± 0.062.

Turning to “NEDD4-like E3 ubiquitin-protein ligase WWP2 S456Q, O00308”, the abundance fitness was -0.11 ± 0.066.

Take “NEDD4-like E3 ubiquitin-protein ligase WWP2 S456R, O00308”: the abundance fitness is -0.142 ± 0.041.

As to “NEDD4-like E3 ubiquitin-protein ligase WWP2 S456T, O00308”, the abundance fitness was -0.04 ± 0.06.

As for “NEDD4-like E3 ubiquitin-protein ligase WWP2 S456V, O00308”, the abundance fitness was -0.208 ± 0.059.

For the substance “NEDD4-like E3 ubiquitin-protein ligase WWP2 S456W, O00308”, the abundance fitness was -0.192 ± 0.047.

For “NEDD4-like E3 ubiquitin-protein ligase WWP2 S456Y, O00308”, the abundance fitness is -0.589 ± 0.12.

As for “NEDD4-like E3 ubiquitin-protein ligase WWP2 S481A, O00308”, the abundance fitness was determined as 0 ± 0.061.

For the substance “NEDD4-like E3 ubiquitin-protein ligase WWP2 S481C, O00308”, the abundance fitness is -0.054 ± 0.061.

In the case of “NEDD4-like E3 ubiquitin-protein ligase WWP2 S481D, O00308”, the abundance fitness turned out to be 0.01 ± 0.037.
